Paper PMC9253516

T1: Aurora B (endogenous), Q96GD4
T1 chain: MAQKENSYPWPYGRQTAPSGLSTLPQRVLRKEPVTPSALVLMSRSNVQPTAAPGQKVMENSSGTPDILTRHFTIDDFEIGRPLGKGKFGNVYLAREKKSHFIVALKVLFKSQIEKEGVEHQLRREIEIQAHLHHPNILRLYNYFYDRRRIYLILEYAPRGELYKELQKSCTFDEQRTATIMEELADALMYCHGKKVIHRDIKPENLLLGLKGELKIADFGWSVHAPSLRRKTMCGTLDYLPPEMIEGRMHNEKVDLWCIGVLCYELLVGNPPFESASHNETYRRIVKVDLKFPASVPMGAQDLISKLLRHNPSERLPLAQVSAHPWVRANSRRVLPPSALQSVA

T2: Borealin (endogenous), Q53HL2
T2 chain: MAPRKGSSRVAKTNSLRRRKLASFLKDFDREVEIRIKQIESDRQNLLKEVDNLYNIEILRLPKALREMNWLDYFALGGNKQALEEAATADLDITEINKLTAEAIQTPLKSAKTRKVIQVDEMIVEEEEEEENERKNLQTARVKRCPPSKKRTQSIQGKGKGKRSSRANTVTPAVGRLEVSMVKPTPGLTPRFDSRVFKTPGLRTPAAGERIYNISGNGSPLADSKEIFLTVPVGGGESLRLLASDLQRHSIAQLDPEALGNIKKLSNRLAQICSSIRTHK


Experiments:
[1] = molecular target: T1, Aurora B (endogenous), Q96GD4; test: LacO-LacI tethering assay, immunofluorescence in U-2 OS-LacO Haspin CM cells; conditions: chain shown with the change, red bar = mean, read off a plot
[2] = molecular target: T2, Borealin (endogenous), Q53HL2; test: as above; conditions: chain shown with the change, n = 21 (mutant), n = 22 (parent), red bar = mean, read off a plot

Row | response ([1]; n = 23 (mutant), n = 10 (parent), parent: est. 1.2) [a.u.] | response ([2]; parent: est. 1.4) [a.u.] | response ([1]; n = 22 (mutant), n = 20 (parent), parent: est. 0.85) [a.u.] | response ([2]; parent: est. 1.2) [a.u.] | Binder
1 | 0.15 | 0.25 | – | – | Sgo1_(159–240)-LacI-GFP, Q5FBB7 V188A; S189A; V190A; R191A (protein) QIPTIPQDTLGVDFDSGEAKSTDNVLPRTAAAASSLKKHCNSICQFDSLDDFETSHLAGKSFEFERVGFLDPLVNMHIPENV
2 | – | – | 0.1 | 0.18 | Sgo1_(130–280)-LacI-GFP, Q5FBB7 V188A; S189A; V190A; R191A (protein) RNLFVKDLPQIPLEETELPGQGESFQIEDQIPTIPQDTLGVDFDSGEAKSTDNVLPRTAAAASSLKKHCNSICQFDSLDDFETSHLAGKSFEFERVGFLDPLVNMHIPENVQHNACQWSKDQVNLSPKLIQPGTFTKTKEDILESKSEQTK
